System: E. coli synthesized tau (352 residue isoform), non-phosphorylated

Substance	in vitro kinase reaction, immunoblot with anti-PY18 and 4G10
src tyrosine kinase (Upstate Biotechnologies)	Identical results were observed for src.
fyn tyrosine kinase (Upstate Biotechnologies)	fyn kinased tyr18 in vitro
